Experimental data as given in the supplement of paper PMC9112550, “Optimization of the antimicrobial peptide Bac7 by deep mutational scanning” (BMC Biology, 2022).

Each sequence was assayed on Escherichia coli TOP10 (assay: shrunken log2 fold change of peptide-encoding DNA abundance (4.5 h post-induction vs induction); higher = less antimicrobial activity (less host growth inhibition)). Conditions: time post-induction: 4.5 h; library: site-saturation at positions 5, 18, 19, 20.
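Note: peptides expressed intracellularly from a pBAD plasmid library in pooled LB shake-flask culture, induced with 0.3% L-arabinose, DNA abundance read by NGS, three biological replicates, DESeq2 with apeglm shrinkage.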

Sequence	shrunken log2 fold change
RRIRRRPPRLPRPRPRPCYHPRP	-0.169
RRIRRRPPRLPRPRPRPDCGPRP	0.16
RRIRRRPPRLPRPRPRPDCWPRP	0.676
RRIRRRPPRLPRPRPRPDDCPRP	0.279
RRIRRRPPRLPRPRPRPDEYPRP	-0.0588
RRIRRRPPRLPRPRPRPDGIPRP	0.282
RRIRRRPPRLPRPRPRPDHTPRP	-0.447
RRIRRRPPRLPRPRPRPDIDPRP	0.0367
RRIRRRPPRLPRPRPRPDLMPRP	2.63
RRIRRRPPRLPRPRPRPDMNPRP	-0.00608
RRIRRRPPRLPRPRPRPDNFPRP	0.028
RRIRRRPPRLPRPRPRPDNHPRP	-0.215
RRIRRRPPRLPRPRPRPDPGPRP	-0.0599
RRIRRRPPRLPRPRPRPDSFPRP	-0.0228
RRIRRRPPRLPRPRPRPDSMPRP	-0.251
RRIRRRPPRLPRPRPRPDSSPRP	-0.118
RRIRRRPPRLPRPRPRPDVEPRP	0.0547
RRIRRRPPRLPRPRPRPDVHPRP	-0.101
RRIRRRPPRLPRPRPRPDVLPRP	0.0203
RRIRRRPPRLPRPRPRPDVSPRP	-0.0463
RRIRRRPPRLPRPRPRPDVYPRP	-0.0445
RRIRRRPPRLPRPRPRPDYGPRP	-0.28
RRIRRRPPRLPRPRPRPEASPRP	0.75
RRIRRRPPRLPRPRPRPEDRPRP	-0.154
RRIRRRPPRLPRPRPRPEECPRP	0.00164

Sequence	shrunken log2 fold change
RRIRRRPPRLPRPRPRPEEMPRP	1.38
RRIRRRPPRLPRPRPRPEFMPRP	0.377
RRIRRRPPRLPRPRPRPEFPPRP	0.154
RRIRRRPPRLPRPRPRPEGFPRP	0.151
RRIRRRPPRLPRPRPRPEGGPRP	0.103
RRIRRRPPRLPRPRPRPEHGPRP	0.0177
RRIRRRPPRLPRPRPRPEHMPRP	0.14
RRIRRRPPRLPRPRPRPEHSPRP	0.143
RRIRRRPPRLPRPRPRPEHVPRP	0.232
RRIRRRPPRLPRPRPRPEKFPRP	0.171
RRIRRRPPRLPRPRPRPELHPRP	0.793
RRIRRRPPRLPRPRPRPELMPRP	0.0537
RRIRRRPPRLPRPRPRPELQPRP	0.212
RRIRRRPPRLPRPRPRPEMEPRP	0.0355
RRIRRRPPRLPRPRPRPENNPRP	0.0497
RRIRRRPPRLPRPRPRPEQMPRP	0.19
RRIRRRPPRLPRPRPRPERAPRP	0.79
RRIRRRPPRLPRPRPRPESHPRP	0.589
RRIRRRPPRLPRPRPRPESKPRP	0.265
RRIRRRPPRLPRPRPRPESMPRP	0.358
RRIRRRPPRLPRPRPRPESNPRP	0.219
RRIRRRPPRLPRPRPRPESVPRP	0.075
RRIRRRPPRLPRPRPRPESWPRP	1.12
RRIRRRPPRLPRPRPRPFAEPRP	0.61
RRIRRRPPRLPRPRPRPFAKPRP	0.219

Sequence	shrunken log2 fold change
RRIRRRPPRLPRPRPRPFAWPRP	0.189
RRIRRRPPRLPRPRPRPFCCPRP	0.343
RRIRRRPPRLPRPRPRPFCPPRP	-0.106
RRIRRRPPRLPRPRPRPFDDPRP	-0.236
RRIRRRPPRLPRPRPRPFDNPRP	-0.241
RRIRRRPPRLPRPRPRPFDPPRP	0.504
RRIRRRPPRLPRPRPRPFDTPRP	-0.154
RRIRRRPPRLPRPRPRPFHDPRP	-0.307
RRIRRRPPRLPRPRPRPFHTPRP	-0.0624
RRIRRRPPRLPRPRPRPFIDPRP	-0.162
RRIRRRPPRLPRPRPRPFLIPRP	1.61
RRIRRRPPRLPRPRPRPFLKPRP	-0.0464
RRIRRRPPRLPRPRPRPFLVPRP	-0.566
RRIRRRPPRLPRPRPRPFLYPRP	0.0538
RRIRRRPPRLPRPRPRPFMDPRP	-0.148
RRIRRRPPRLPRPRPRPFMGPRP	-0.366
RRIRRRPPRLPRPRPRPFMMPRP	-0.173
RRIRRRPPRLPRPRPRPFMVPRP	-0.242
RRIRRRPPRLPRPRPRPFNGPRP	0.0131
RRIRRRPPRLPRPRPRPFPAPRP	0.731
RRIRRRPPRLPRPRPRPFRQPRP	-0.0196
RRIRRRPPRLPRPRPRPFRRPRP	0.322
RRIRRRPPRLPRPRPRPFSIPRP	-0.254
RRIRRRPPRLPRPRPRPFSWPRP	-0.469
RRIRRRPPRLPRPRPRPGCCPRP	0.589
